In the assay the target is ItaT(G115D) mutant protein (E. coli HS). Put plainly: crystal structure.

One may read the stoichiometry N as a count of units in the complex or per binding partner. With ItaT(G115D) mutant protein (enzyme), the stoichiometry N came out at 2.
